The text below walks through data of PMC5816147.

In the assay the target is GLP1 receptor (human) (UniProt P43220).
Sequence of GLP1 receptor (human) (P43220 24-463): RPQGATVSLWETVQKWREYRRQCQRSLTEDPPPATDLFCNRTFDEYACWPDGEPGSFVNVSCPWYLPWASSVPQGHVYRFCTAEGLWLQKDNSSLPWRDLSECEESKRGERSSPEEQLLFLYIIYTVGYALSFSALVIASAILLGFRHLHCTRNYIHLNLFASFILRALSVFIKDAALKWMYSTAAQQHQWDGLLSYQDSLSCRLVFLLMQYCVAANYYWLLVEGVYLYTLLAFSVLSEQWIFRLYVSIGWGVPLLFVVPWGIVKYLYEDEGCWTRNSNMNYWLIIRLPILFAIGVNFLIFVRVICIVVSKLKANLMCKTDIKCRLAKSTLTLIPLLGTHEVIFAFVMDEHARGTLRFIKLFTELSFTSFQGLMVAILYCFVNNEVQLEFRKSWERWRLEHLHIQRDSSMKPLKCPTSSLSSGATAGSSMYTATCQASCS

On to (D)-GLP1 peptide (designed binder), for which the EC50 of CRE-luciferase expression in HEK293 cells stably expressing GLP1R was found to be 2200 nM.
